Data from the supplement of paper PMC10065799, “High-throughput profiling of sequence recognition by tyrosine kinases and SH2 domains using bacterial peptide display” (eLife, 2023).

Legend:
EPHB1 = EPHB1 (UniProt P54762); experiment: phosphorylation enrichment, bacterial display (enrichment ratio); higher = better substrate or ligand; peptides without Tyr show the background
c-Abl (mouse) = experiment: as above
MERTK = MERTK (UniProt Q12866); experiment: as above
Fes = Fes (UniProt P07332); experiment: as above
Chain of Fes (P07332 whole entry, looked up): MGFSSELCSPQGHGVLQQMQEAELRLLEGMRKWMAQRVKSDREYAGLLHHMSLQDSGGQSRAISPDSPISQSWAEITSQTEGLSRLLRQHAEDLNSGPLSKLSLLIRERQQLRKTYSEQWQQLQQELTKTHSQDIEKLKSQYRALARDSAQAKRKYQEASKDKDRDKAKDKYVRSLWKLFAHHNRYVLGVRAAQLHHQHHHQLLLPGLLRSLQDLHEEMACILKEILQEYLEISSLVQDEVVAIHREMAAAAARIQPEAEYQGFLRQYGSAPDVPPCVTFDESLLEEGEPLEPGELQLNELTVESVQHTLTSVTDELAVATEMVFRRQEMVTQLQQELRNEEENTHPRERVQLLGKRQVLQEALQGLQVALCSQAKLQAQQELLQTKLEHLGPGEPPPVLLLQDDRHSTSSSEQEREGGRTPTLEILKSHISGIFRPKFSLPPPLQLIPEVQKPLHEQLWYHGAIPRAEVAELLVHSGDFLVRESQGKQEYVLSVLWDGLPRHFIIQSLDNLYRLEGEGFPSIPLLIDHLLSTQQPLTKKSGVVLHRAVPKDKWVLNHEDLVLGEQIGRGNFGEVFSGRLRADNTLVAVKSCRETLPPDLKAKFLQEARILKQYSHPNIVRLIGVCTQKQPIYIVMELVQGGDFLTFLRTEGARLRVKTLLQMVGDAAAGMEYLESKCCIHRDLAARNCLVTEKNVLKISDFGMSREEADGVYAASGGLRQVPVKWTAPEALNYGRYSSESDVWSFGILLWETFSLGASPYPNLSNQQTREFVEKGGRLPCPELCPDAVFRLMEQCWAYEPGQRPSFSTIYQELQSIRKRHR

FGFR3 = FGFR3 (UniProt P22607); experiment: as above
Chain of FGFR3 (P22607 whole entry, looked up): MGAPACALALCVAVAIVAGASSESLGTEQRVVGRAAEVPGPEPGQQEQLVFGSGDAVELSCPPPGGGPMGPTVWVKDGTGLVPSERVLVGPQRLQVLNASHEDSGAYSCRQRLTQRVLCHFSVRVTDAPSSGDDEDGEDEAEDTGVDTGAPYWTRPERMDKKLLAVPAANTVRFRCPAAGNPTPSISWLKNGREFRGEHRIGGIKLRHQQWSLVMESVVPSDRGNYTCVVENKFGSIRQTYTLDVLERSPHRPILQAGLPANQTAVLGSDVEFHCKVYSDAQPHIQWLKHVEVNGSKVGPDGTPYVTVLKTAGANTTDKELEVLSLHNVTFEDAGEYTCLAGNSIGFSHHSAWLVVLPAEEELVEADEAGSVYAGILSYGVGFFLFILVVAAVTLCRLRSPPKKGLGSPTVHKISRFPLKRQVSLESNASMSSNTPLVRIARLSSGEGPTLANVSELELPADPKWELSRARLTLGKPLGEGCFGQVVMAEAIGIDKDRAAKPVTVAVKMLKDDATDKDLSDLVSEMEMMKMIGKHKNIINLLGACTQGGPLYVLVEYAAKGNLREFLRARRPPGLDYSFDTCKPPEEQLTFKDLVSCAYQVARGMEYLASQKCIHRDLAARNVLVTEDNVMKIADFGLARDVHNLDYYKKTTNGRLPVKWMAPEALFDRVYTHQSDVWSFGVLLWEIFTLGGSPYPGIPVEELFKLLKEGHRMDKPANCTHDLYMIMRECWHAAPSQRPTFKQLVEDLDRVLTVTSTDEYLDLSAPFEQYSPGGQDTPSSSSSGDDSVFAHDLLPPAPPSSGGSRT

Fyn = Fyn (UniProt P06241); experiment: as above
Chain of Fyn (P06241 whole entry, looked up): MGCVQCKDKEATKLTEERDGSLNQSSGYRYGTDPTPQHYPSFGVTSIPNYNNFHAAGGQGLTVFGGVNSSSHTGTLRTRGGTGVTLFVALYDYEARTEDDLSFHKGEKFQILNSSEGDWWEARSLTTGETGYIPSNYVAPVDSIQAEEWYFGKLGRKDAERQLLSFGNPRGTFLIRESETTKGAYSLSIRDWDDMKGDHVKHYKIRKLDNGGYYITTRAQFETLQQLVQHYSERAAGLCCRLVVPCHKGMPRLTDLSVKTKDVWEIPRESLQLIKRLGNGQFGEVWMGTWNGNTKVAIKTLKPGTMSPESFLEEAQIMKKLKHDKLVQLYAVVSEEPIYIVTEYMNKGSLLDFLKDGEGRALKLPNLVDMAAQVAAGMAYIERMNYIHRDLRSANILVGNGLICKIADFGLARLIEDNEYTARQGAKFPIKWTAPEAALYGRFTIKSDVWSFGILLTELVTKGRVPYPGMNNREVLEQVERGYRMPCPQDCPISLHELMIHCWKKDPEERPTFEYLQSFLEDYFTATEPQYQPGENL

EPHB2 = EPHB2 (UniProt P29323); experiment: as above
Chain of EPHB2 (P29323 whole entry, looked up): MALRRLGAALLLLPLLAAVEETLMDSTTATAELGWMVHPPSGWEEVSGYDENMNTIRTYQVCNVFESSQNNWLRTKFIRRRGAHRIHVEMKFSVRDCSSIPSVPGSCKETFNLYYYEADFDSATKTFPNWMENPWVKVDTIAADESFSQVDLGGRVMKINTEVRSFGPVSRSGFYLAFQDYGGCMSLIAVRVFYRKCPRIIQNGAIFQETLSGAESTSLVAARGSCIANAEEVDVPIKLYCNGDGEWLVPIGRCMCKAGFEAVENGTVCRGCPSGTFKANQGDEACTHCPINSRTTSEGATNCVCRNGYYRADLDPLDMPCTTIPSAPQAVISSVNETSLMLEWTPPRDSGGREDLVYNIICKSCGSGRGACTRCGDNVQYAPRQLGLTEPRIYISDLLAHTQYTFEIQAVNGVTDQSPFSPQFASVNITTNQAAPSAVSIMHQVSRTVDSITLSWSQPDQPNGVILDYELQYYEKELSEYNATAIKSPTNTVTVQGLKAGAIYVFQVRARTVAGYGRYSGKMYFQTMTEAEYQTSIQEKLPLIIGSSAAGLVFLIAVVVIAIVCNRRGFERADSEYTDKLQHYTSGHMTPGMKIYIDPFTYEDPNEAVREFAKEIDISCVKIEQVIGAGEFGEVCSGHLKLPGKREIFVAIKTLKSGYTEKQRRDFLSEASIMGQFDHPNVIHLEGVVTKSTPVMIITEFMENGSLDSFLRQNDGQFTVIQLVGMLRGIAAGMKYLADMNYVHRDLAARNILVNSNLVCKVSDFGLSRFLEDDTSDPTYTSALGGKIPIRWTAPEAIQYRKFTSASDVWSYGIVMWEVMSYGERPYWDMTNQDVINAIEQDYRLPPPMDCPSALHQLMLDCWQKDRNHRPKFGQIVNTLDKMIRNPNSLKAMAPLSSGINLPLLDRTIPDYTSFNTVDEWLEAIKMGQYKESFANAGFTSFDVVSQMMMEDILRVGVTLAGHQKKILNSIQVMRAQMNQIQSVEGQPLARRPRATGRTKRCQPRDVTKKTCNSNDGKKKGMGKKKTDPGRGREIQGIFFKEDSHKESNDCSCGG

Hck = Hck (UniProt P08631); experiment: as above
FGFR1 = FGFR1 (UniProt P11362); experiment: as above
Chain of FGFR1 (P11362 whole entry, looked up): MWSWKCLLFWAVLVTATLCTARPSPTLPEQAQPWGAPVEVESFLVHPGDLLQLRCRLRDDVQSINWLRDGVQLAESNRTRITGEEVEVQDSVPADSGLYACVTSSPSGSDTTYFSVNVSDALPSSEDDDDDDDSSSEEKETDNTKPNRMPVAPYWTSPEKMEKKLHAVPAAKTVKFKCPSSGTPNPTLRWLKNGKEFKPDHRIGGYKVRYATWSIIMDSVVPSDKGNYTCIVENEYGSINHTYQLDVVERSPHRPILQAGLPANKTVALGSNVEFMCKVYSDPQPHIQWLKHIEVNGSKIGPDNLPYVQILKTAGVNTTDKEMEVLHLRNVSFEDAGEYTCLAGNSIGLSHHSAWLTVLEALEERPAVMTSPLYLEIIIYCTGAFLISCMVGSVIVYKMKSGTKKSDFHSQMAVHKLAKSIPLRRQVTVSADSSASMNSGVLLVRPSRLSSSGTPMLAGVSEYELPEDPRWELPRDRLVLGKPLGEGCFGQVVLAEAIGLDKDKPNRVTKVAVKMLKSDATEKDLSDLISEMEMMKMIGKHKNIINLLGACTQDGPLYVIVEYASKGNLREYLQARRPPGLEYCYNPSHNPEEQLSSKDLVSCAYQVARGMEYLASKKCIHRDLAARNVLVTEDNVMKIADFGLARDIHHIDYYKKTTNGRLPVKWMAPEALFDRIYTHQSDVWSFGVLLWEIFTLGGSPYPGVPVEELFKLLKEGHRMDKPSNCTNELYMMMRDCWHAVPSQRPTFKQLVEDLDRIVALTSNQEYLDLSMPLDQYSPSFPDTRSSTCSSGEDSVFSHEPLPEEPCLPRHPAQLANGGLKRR

Fer (mouse) = experiment: as above
AncSZ = experiment: as above
Jak2 = Jak2 (UniProt O60674); experiment: as above
c-Src = experiment: as above
SHP2-C SH2 = experiment: SH2 binding enrichment of the phosphorylated peptide, bacterial display (enrichment ratio); higher = better substrate or ligand; peptides without Tyr show the background
c-Src SH2 = experiment: as above
Grb2 SH2 = Grb2 SH2 (UniProt P62993); experiment: as above
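Throughout, for SH2 binding enrichment of the phosphorylated peptide, bacterial display: peptide library displayed on the E. coli surface as eCPX fusions, selected cells deep-sequenced, score is each peptide's frequency after selection divided by its frequency in the input.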
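Throughout, for phosphorylation enrichment, bacterial display: 11-residue human phosphosite peptides and single-mutation variants displayed on the E. coli surface, counted by deep sequencing, each peptide's frequency after selection divided by its frequency in the unselected input library; frequency after pTyr selection over input frequency; kinase dosed for 20-30% of maximal phosphorylation in three min.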

Chain of EPHB1 (P54762 whole entry, looked up): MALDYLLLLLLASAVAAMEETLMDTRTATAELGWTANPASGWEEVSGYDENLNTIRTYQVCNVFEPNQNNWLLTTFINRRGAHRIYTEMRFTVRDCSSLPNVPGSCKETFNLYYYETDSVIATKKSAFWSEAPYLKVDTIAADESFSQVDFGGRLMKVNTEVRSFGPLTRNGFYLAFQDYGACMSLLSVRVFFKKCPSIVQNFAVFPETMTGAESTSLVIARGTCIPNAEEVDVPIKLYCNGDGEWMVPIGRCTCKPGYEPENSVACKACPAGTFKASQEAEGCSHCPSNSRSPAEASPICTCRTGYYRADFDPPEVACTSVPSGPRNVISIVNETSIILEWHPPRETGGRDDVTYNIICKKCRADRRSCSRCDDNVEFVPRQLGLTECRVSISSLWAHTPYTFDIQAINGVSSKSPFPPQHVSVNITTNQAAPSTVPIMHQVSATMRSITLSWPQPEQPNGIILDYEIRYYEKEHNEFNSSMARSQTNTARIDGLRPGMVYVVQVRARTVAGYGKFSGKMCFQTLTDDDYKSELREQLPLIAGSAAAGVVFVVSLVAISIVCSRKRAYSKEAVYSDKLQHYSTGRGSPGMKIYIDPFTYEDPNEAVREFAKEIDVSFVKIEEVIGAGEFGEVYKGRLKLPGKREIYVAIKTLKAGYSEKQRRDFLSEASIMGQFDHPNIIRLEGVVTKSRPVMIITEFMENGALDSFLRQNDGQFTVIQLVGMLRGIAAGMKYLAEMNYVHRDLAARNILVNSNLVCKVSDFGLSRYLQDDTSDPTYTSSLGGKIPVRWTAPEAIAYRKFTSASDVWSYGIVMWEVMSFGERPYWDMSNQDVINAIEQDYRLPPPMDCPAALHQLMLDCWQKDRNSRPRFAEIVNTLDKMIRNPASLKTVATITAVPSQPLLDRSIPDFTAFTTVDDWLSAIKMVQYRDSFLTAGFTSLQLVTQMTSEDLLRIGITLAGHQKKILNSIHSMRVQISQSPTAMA

Sequence | phosphorylation enrichment (EPHB1) | phosphorylation enrichment (c-Abl (mouse)) | phosphorylation enrichment (MERTK) | phosphorylation enrichment (Fes) | phosphorylation enrichment (FGFR3) | phosphorylation enrichment (Fyn) | phosphorylation enrichment (EPHB2) | phosphorylation enrichment (Hck) | phosphorylation enrichment (FGFR1) | phosphorylation enrichment (Fer (mouse)) | phosphorylation enrichment (AncSZ) | phosphorylation enrichment (Jak2) | phosphorylation enrichment (c-Src) | SH2 binding enrichment (SHP2-C SH2) | SH2 binding enrichment (c-Src SH2) | SH2 binding enrichment (Grb2 SH2)
NFDRVYIFHLR [MYOF_Y1137_YF] | 0.545 | 0.91 | 0.46 | 1.19 | 0.897 | 0.414 | 0.559 | 0.473 | 0.535 | 0.523 | 1.19 | 1.18 | 0.615 | 1.66 | 1.21 | 1.59
NFYEYYVDDPL [GCHFR_Y48_P53L] | 6.99 | 1.04 | 7.76 | 1.74 | 5.52 | 4.96 | 7.76 | 2.29 | 7.28 | 6.36 | 2.81 | 1.64 | 4.67 | 0.726 | 0.856 | 0.984
NGSKAYAFVHF [PABPC5_Y147_G146A_YF] | 0.586 | 0.618 | 0.71 | 1.02 | 0.763 | 0.442 | 0.606 | 0.531 | 0.649 | 0.769 | 0.97 | 0.796 | 0.372 | 20.4 | 1.65 | 1.05
NHQFDYTFDWT [CSNK1A1_Y294_YF] | 0.696 | 0.995 | 0.565 | 1.12 | 2.22 | 0.584 | 0.721 | 0.543 | 3.58 | 0.459 | 1.23 | 1.08 | 1.22 | 0.829 | 0.606 | 1.02
NHYKIHNLCAE [PTEN_Y68_Y68H] | 0.56 | 0.696 | 0.435 | 0.823 | 0.58 | 0.421 | 0.614 | 0.476 | 0.493 | 0.463 | 0.593 | 0.706 | 0.492 | 1.02 | 0.554 | 1.08
NKEAICSGYIR [SMCHD1_Y283_Y283C] | 0.52 | 1.3 | 0.42 | 0.903 | 0.71 | 0.369 | 0.547 | 0.424 | 0.509 | 0.446 | 0.794 | 0.875 | 0.399 | 0.462 | 0.436 | 0.761
NKHTNYTMEHI [ACTN1_Y708] | 0.35 | 0.352 | 0.358 | 0.549 | 0.296 | 0.388 | 0.401 | 0.384 | 0.404 | 0.36 | 0.509 | 0.421 | 0.381 | 0.603 | 0.458 | 0.814
NLRQQYNSPQE [UMPS_Y432_G429R] | 0.382 | 0.354 | 0.293 | 0.587 | 0.43 | 0.437 | 0.439 | 0.451 | 0.464 | 0.345 | 0.634 | 0.592 | 0.316 | 0.769 | 0.635 | 0.829
NLSVRYDSSLK [ABCC8_Y1353] | 0.515 | 0.55 | 0.381 | 0.98 | 0.633 | 0.353 | 0.457 | 0.473 | 0.446 | 0.422 | 0.68 | 0.847 | 0.492 | 0.863 | 0.587 | 0.887
NNKKDYYDMYE [SLC26A3_Y526_K521N] | 2.03 | 0.537 | 0.483 | 1.04 | 6.01 | 0.792 | 1.52 | 0.728 | 8.57 | 0.544 | 1.47 | 0.735 | 0.591 | 0.54 | 1.57 | 0.753
NPQKSYFICLF [WAS_Y83_R86C_YF] | 0.525 | 1 | 0.43 | 1.27 | 0.757 | 0.39 | 0.523 | 0.448 | 0.632 | 0.496 | 1.1 | 1.13 | 0.504 | 1.03 | 0.602 | 0.988
NPQKSYFIHLY [WAS_Y83_R86H] | 0.588 | 0.864 | 0.424 | 1.23 | 0.782 | 0.589 | 0.586 | 0.559 | 0.46 | 0.517 | 1.12 | 1.18 | 0.407 | 1.02 | 0.804 | 1.29
NPQKSYFIRLF [WAS_Y83_YF] | 0.58 | 0.692 | 0.457 | 1.4 | 0.754 | 0.453 | 0.501 | 0.5 | 0.579 | 0.583 | 1.09 | 1.21 | 0.464 | 0.945 | 0.701 | 1.2
NTQRPYYKGGG [TYROBP_Y111] | 0.331 | 0.427 | 0.415 | 0.592 | 0.421 | 0.305 | 0.383 | 0.431 | 0.511 | 0.411 | 0.516 | 0.601 | 0.432 | 1.39 | 0.736 | 1.21
NVTGHYISPFH [PPA2_Y59] | 0.423 | 0.92 | 0.563 | 0.542 | 0.422 | 0.448 | 0.493 | 0.486 | 0.459 | 0.325 | 0.552 | 0.492 | 0.362 | 1.11 | 1.14 | 0.852
NYADPYRQLPY [CTNND2_Y503_Q507P] | 10.1 | 0.847 | 6.98 | 0.819 | 2.33 | 0.501 | 10.7 | 0.847 | 4.13 | 0.469 | 0.78 | 0.669 | 0.827 | 0.749 | 1.25 | 0.775
